Source: US20240279334A1 (AMBERSTONE BIOSCIENCES, published 2024)

Experiments:
[1] = target: human CD3 on T cells (Jurkat reporter cells, human primary T cells) (human) (UniProt P07766); assay: cell-based or functional assay
[2] = target: T1, recombinant human CD3E (ECD) (human, UniProt P07766 23-126); assay: ELISA with human CD3E; % Binding plotted against pH (6.0 to 7.4), relative to pH 6.0; Fab concentration not shown on the sheet
T1 construct: extracellular domain; This is the coated antigen of the ELISA; also called extracellular domain of human CD3E
T1 sequence (P07766 23-126): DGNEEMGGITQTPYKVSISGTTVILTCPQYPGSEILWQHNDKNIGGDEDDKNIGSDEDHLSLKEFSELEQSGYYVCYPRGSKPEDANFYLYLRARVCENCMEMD
Description: (§1) The plates were then blocked with 200 μL ELISA assay diluents with BSA after discarding the coating solution and washing three times with washing buffer (pH-adjusted 1×PBS+0.05% Tween). […] The plates were washed three times with pH-adjusted 1×PBS buffer and incubated with horseradish peroxidase (HRP) conjugated with goat anti-human IgG Fc for about 30 minutes (min) to one hour. After washing three times, the bound HRP enzyme was detected by addition of 100 μL/well […] substrate (BioFX Laboratories, MD, USA) for about 1 to 5 min and then the detection of color was done based on 630 nm absorption. The pH-adjusted 1×PBS buffer of about pH 6.0, 6.1, 6.2, 6.3, 6.4, 6.5, 6.6, 6.7, 6.8, 6.9, 7.0, 7.1, 7.2, 7.3, 7.4, 7.5 or 7.6 can be based on a regular PBS buffer that is substantially the same as the well-known Cold Spring Harbor Lab's recipe which comprises 137 mM NaCl, 2.7 mM KCl, 10 mM Na₂HPO₄, 1.8 mM KH₂PO₄, and optionally 1 mM CaCl₂) and 0.5 mM MgCl₂, wherein the buffer's pH is adjusted using HCl or H₃PO₄. Alternatively, the pH-adjusted 1×PBS buffers can be based on a modified PBS recipe that comprises 118-146 mM NaCl, 2.7 mM KCl, 10 mM Na₂HPO₄, 1.8 mM KH₂PO₄, and optionally 1 mM CaCl₂) and 0.1-0.8 mM MgCl₂, iron (0-9 mM), sulfide (0.8-5 mM), and optionally further comprising one or more components selected from the following: 5-15 mM D-glucose, NaHCO₃(5-20 mM), 0.1 mM NEAA (non-essential amino acids), 2-20 mM lactic acid and 0.1-0.5% BSA, wherein the buffer's pH is adjusted using HCl or H₃PO₄.

[3] = target: T2, extracellular domain of cynomolgus monkey CD3E (cynomolgus monkey, UniProt Q95LI5 22-117); assay: ELISA with monkey CD3E; % Binding plotted against pH (6.0 to 7.4), relative to pH 6.0; Fab concentration not shown on the sheet
T2 construct: extracellular domain; This is the coated antigen of the ELISA; also called cyno CD3
T2 sequence (looked up): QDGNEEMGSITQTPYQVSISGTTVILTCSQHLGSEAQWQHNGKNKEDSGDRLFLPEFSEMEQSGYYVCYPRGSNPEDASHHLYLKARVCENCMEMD
Description: as §1, with “Alternatively, the pH-adjusted 1×PBS buffers can be based on a modified PBS recipe that comprises 118-146 mM NaCl, 2.7 mM KCl, 10 mM Na₂HPO₄, 1.8 mM KH₂PO₄, and optionally 1 mM CaCl₂) and 0.1-0.8 mM MgCl₂, iron (0-9 mM), sulfide (0.8-5 mM), and optionally further comprising one or more components selected from the following: 5-15 mM D-glucose, NaHCO₃(5-20 mM), 0.1 mM NEAA (non-essential amino acids), 2-20 mM lactic acid and 0.1-0.5% BSA, wherein the buffer's pH is adjusted using HCl or H₃PO₄.” left out

Sequence of human CD3 on T cells (Jurkat reporter cells, human primary T cells) (human) (P07766 23-207): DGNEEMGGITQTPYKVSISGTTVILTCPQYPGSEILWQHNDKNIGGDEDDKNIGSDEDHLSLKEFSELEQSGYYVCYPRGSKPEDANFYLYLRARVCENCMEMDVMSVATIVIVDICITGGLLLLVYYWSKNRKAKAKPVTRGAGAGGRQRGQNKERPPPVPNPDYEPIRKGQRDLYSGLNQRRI

B1: CD3(h10.v39)×TROP-2(RS7.v1) assembled in a human IgG1-Fc (Knobs-in-Holes) (bispecific antibody, not shown: a dimerising Fc or GST)
heavy: EVQLVQSGAEVKKPGASVKVSCKASGYTFTSYYTHWVRQAPGQGLEWIGWIYPGDFNTKFNEKFKGRVTLTADTSASTAYMELSSLRSEDTAVYYCARDHYGYYYFDYWGQGTLVTVSS
light: DIVMTQSPDSLAVSLGERATINCKSSQSLLNSRTRHNYLAWYQQKPGQPPKLLIYWATTRASGVPDRFSGSGSGTDFTLTISSLQAEDVAVYYCIQSYTGRTFGGGTKVEIK
VH: EVQLQQSGSELKKPGASVKVSCKASGYTFTNYGMNWVKQAPGQGLKWMGWINTYTGEPTYTDDFKGRFAFSLDTSVSTAYLQISSLKADDTAVYFCARGGFGSSYWYFDVWGQGSLVTVSS
VL: DIQLTQSPSSLSASVGDRVSITCKASQDVSIAVAWYQQKPGKAPKLLIYSASYRYTGVPDRFSGSGSGTDFTLTISSLQPEDFAVYYCQQHYITPLTFGAGTKVEIK
Question: B1 was tested. Which percent killing of MDA-MB-468 cells at the pH 6.6 ECmax dose, pH 7.4 [1] did it give?
Answer: 16%

Question: And the percent killing of TROP-2-high MDA-MB-468 cells, pH 6.6 [1]?
Answer: 100%

B2: CD3 (h10.v38)×TROP-2 (RS7.v1) hIgG1-Fc (KiH) (bispecific antibody, not shown: a dimerising Fc or GST)
heavy: EVQLVQSGAEVKKPGASVKVSCKASGYTFTSYYYHWVRQAPGQGLEWIGWIYPGDFNTKFNEKFKGRVTLTADTSASTAYMELSSLRSEDTAVYYCARDHYGYYYFDYWGQGTLVTVSS
light: DIVMTQSPDSLAVSLGERATINCKSSQSLLNSRTRHNYLAWYQQKPGQPPKLLIYWATTRASGVPDRFSGSGSGTDFTLTISSLQAEDVAVYYCIQSYTGRTFGGGTKVEIK
VH: EVQLQQSGSELKKPGASVKVSCKASGYTFTNYGMNWVKQAPGQGLKWMGWINTYTGEPTYTDDFKGRFAFSLDTSVSTAYLQISSLKADDTAVYFCARGGFGSSYWYFDVWGQGSLVTVSS
VL: DIQLTQSPSSLSASVGDRVSITCKASQDVSIAVAWYQQKPGKAPKLLIYSASYRYTGVPDRFSGSGSGTDFTLTISSLQPEDFAVYYCQQHYITPLTFGAGTKVEIK
Question: B2 was tested. Which T cell mediated killing of DU-145 cells, EC50, pH 6.9 [1] did it give?
Answer: 144 nM

Question: And the T cell mediated killing of MDA-MB-468 cells, EC50, pH 6.6 [1]?
Answer: 0.3 nM

Question: And the T cell mediated killing of MDA-MB-468 cells, EC50, pH 7.0 [1]?
Answer: 9 nM

Question: And the T cell mediated killing of MDA-MB-468 cells, ECmax, pH 6.6 [1]?
Answer: 30 nM

Question: And the fold reduction of MDA-MB-468 killing potency with human PBMCs (E:T about 5.5:1), pH 7.4 against pH 6.6 [1]?
Answer: 80 fold

B3: h10.v38 (Fab) (Fab, V domains shown)
VH: EVQLVQSGAEVKKPGASVKVSCKASGYTFTSYYYHWVRQAPGQGLEWIGWIYPGDFNTKFNEKFKGRVTLTADTSASTAYMELSSLRSEDTAVYYCARDHYGYYYFDYWGQGTLVTVSS
VL: DIVMTQSPDSLAVSLGERATINCKSSQSLLNSRTRHNYLAWYQQKPGQPPKLLIYWATTRASGVPDRFSGSGSGTDFTLTISSLQAEDVAVYYCIQSYTGRTFGGGTKVEIK
notes: Tested as a Fab
Question: Does B3 bind [2]?
Answer: binds

B4: h10.v23 (Fab) (Fab, V domains shown)
VH: EVQLVQSGAEVKKPGASVKVSCKASGYTFTSYYVHWVRQAPGQGLEWIGWIYPGDFNTKFNEKFKGRVTLTADTSASTAYMELSSLRSEDTAVYYCARDHYGYYYFDYWGQGTLVTVSS
VL: DIVMTQSPDSLAVSLGERATINCKSSQSLLNSRTRHNYLAWYQQKPGQPPKLLIYWATTRASGVPDRFSGSGSGTDFTLTISSLQAEDVAVYYCIQSYTGRTFGGGTKVEIK
notes: Purified and used as a Fab; also called anti-CD3 clone h10.v23
Question: Does B4 bind [2]?
Answer: binds

B5: h10.v49 (Fab) (Fab, V domains shown)
VH: EVQLVQSGAEVKKPGASVKVSCKASGYTFTSYYYHWVRQAPGQGLEWIGWIYPGDFNTKFNEKFKGRVTLTADTSASTAYMELSSLRSEDTAVYYCARDHYHQYYFDYWGQGTLVTVSS
VL: DIVMTQSPDSLAVSLGERATINCKSSQSLLNSRTRHNYLAWYQQKPGQPPKLLIYWATTRASGVPDRFSGSGSGTDFTLTISSLQAEDVAVYYCIQSYTGRTFGGGTKVEIK
notes: Tested as a Fab
Question: Does B5 bind [2]?
Answer: binds

B6: h10.v27 (Fab) (Fab, V domains shown)
VH: EVQLVQSGAEVKKPGASVKVSCKASGYTFTSYYYHWVRQAPGQGLEWIGWIYPGDFNTKFNEKFKGRVTLTADTSASTAYMELSSLRSEDTAVYYCARDHYGYYYFDYWGQGTLVTVSS
VL: DIVMTQSPDSLAVSLGERATINCKSSQSLLNSRTRHNYLAWYQQKPGQPPKLLIYWATTRDSGVPDRFSGSGSGTDFTLTISSLQAEDVAVYYCIQSYTGRTFGGGTKVEIK
notes: Tested as a Fab
Question: Does B6 bind [2]?
Answer: binds

B7: h10.v1 (Fab) (Fab, V domains shown)
VH: EVQLVQSGAEVKKPGASVKVSCKASGYTFTSYYVHWVRQAPGQGLEWIGWIYPGDFNTKFNEKFKGRVTLTADTSASTAYMELSSLRSEDTAVYYCARDAYSYYYFDYWGQGTLVTVSS
VL: DIVMTQSPDSLAVSLGERATINCKSSQSLLNSRTRKNYLAWYQQKPGQPPKLLIYWATTRDSGVPDRFSGSGSGTDFTLTISSLQAEDVAVYYCIQSYTTRTFGGGTKVEIK
notes: Tested as a Fab; the Fab constant domains are not; also called non-pH-selective conventional control clone; conventional anti-CD3 control antibody
Question: Does B7 bind [3]?
Answer: binds

Question: Does B7 bind [2]?
Answer: binds
